± gives the uncertainty stated by the source.
Test: amyloid nucleation score (Sup35N fusion, yeast selection) (log enrichment); library NNK3; higher = more nucleation; inactive = no reads after selection
In short: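 Using DiMSum, nucleation scores were taken as the log enrichment of output over input reads, centred on the mode score of non-aggregating sequences. The input and output reads came from Illumina sequencing of plasmid inserts, with sequences under 100 input reads excluded. The yeast were psi-negative, expressed Sup35N fused to peptides of 20 random codons, were induced with 100 μM copper sulfate for 24 hours, and were grown 7 days at 30°C on medium lacking adenine and uracil.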

Substance | amyloid nucleation score
RYWHEASVVGFIWGKWVDVS | inactive
RYWWYHSYRNGSGSLESYGV | inactive
RYYDLVSGSWWIYFG | inactive
SAACLIMCVLLSILVQIFGM | inactive
SACEMWATRHKNWRASGYNH | inactive
SAFKAKL | inactive
SAGACSV | inactive
SARRTVYLFQNSHRVHPFLF | inactive
SASKKLTAFALVVFLRV | inactive
SAWHIRVERIGVMYRVHCYD | 0.747 ± 0.18
SAWSTECYVMCSM | inactive
SAYTTLRDRRCSKGYNMILG | inactive
SCAECDMRWHMGGCICFVLG | inactive
SCEDVVANVLLYCRISGHWG | inactive
SCFCNVFVVDMMSLSMGDIL | 2.4 ± 0.05
SCFCQILPFRV | inactive
SCGKGRYWVLNAMINPICKQ | 1.14 ± 0.096
SCGSDKSLFDDCIKPRSRHC | inactive
SCIRVRRNATVAVVLDDMLK | inactive
SCLSNIVFFFPCQCRSMIFS | 1.99 ± 0.063
SCLWGKRLMFWCE | -0.528 ± 0.77
SCMCYGTLLVLLYISYVMVE | inactive
SCQNRWYSSFHKLAETRSYW | inactive

Substance | amyloid nucleation score
SCQSGMSLCLSDHRLA | inactive
SCRIFDPMEPTTLCENSWSL | inactive
SCRIMSRYGAQIWCDPTYQA | inactive
SCRLLNFIICIGWVWGFDVS | inactive
SCRNCDYLLCGNYHT | inactive
SCSGW | -0.351 ± 1.1
SCSNCVHISRTAILTGPRSA | inactive
SCSSTDDWPGISSG | inactive
SCTVKLDCNAVDSVSMDDVD | inactive
SCVARYDRAAHRRVIETRLG | inactive
SCVGVRVLCSAVV | inactive
SDGSCRVRAFYSYKGALVSF | inactive
SDIAVLRRLNCMKVKLKLWH | inactive
SDKRQLRDR | inactive
SDLTMIRVPIFITLRPPHSS | inactive
SDQVGFQIEVFCVKS | inactive
SDRRLK | inactive
SDRSA | inactive
SDYENTRTNDNDHICVLSVG | inactive
SDYHWYVRTSCGSFSYGHVN | inactive
SEICF | inactive
SEKYATSKYCQVTFGVTLPS | inactive
SEQVMRTRDSTRAKSGLNVI | 0.569 ± 0.22

Substance | amyloid nucleation score
SERPDFMDYEEMLGYAVKWR | inactive
SERQTSLRHLGLRHLFK | 1.22 ± 0.16
SFDFHRVMIPRDRPDYHPSM | inactive
SFFARGVFFAIRQARQGNSG | inactive
SFFLIRG | inactive
SFGLF | inactive
SFISVCNAVLHIR | inactive
SFITTCIYRNVSVFCDHSAE | inactive
SFLFA | inactive
SFLPNKYLL | inactive
SFMRCFNIVWYTSILLRYTW | inactive
SFMVIIYAVERVIVGITGKS | 0.611 ± 0.16
SFNFSPCVYTCVRMCIWGYF | inactive
SFNGMSCLRNNLRWNFNRNA | inactive
SFNHFQCLFISPLTRCARGV | 1.51 ± 0.13
SFNSQSSRRVDNQRWVNLNF | 0.886 ± 0.11
SFSCVHDDCRKLLQLRLDST | inactive
SFSSRRHYNLLPFRWFFRRN | inactive
SFSWLTFPRGSDNFQDWHCI | 0.56 ± 0.31
SFSYNAQLYTQVVMSRYKMR | -0.193 ± 0.48
SFTYTRQSGSNLEAVGTFPH | -0.373 ± 0.69
SFVQRVSLLMSVSVFETASS | inactive
SFVSSMCVTGEKVEGSRPCC | inactive

Substance | amyloid nucleation score
SFYYLVKLYSLSSSIRLFRS | inactive
SGAQARDV | inactive
SGCLFAYSWSGCTLVRYDVF | -0.416 ± 0.45
SGCRLLVVECPASCCWDITT | inactive
SGCVKLVVNTCLRYY | inactive
SGDLMEGGEYF | inactive
SGFKG | inactive
SGGGIPGTLGSGDPSSPNTQ | inactive
SGGYLYRSSLSTVNSEDAMV | inactive
SGISIVIPFPRGVQMT | -0.47 ± 1
SGIVLESLLISRFFKGFHRD | 0.926 ± 0.25
SGLFWRTLEPLNSVDRFYG | inactive
SGLSSRNSYTFVSKRVVGVR | inactive
SGLWHRILCSGRPTGYTQWV | inactive
SGLYMCRISFSPLIVMIVYG | 1.3 ± 0.096
SGMKWYLRLYV | inactive
SGNDISCPATSIHFRVGVRS | inactive
SGQSNDCVMDVWMDM | inactive
SGRSRWNAH | inactive
SGSGWKICRNSHAGAVFYSR | inactive
SGSSVPSLYCVDYAVDG | inactive
SGSVNIHSWCGFNSWT | inactive
SGTHNKVSTRMFGWNFI | 0.584 ± 0.11

Substance | amyloid nucleation score
SGTNLFRF | inactive
SGTPVPAYSTSWQQNWVKQC | inactive
SGYLYFFLRSVDCRFLTSSL | inactive
SHECHSFLHVLFNVACSWGG | inactive
SHGLVIVRTKRPSNGFENGW | inactive
SHPASVFGGKRMGCCSRPKG | -0.304 ± 1.1
SHRNTKKFMEWIFLYFIPTM | 0.064 ± 0.62
SHYSSWVSRDRWSNTEFGMV | inactive
SIADRMHFLWVGEGGTRDYA | inactive
SICCMWMWMACAIKFQNTRR | -0.519 ± 1.9
SIEKAILCSCVVSMPIMRGG | 2.3 ± 0.081
SIFCFDYWQDIGTFMPSAVK | inactive
SIFMWLRNRC | inactive
SIFPRTCTKFFLGVTGFCFN | -0.322 ± 0.8
SIFSLLCVRLRGEVAPSRLM | inactive
SIGCIHARCAYEEFDMVVIC | inactive
SIISMDKDRTLAHTDHQV | inactive
SIKSSISIFKYF | inactive
SILDWYVSVVRRGA | inactive
SILWSPIDEGLIIVSSVTFL | inactive
SIMFVCQFGGGSRNSYGCLA | 2.24 ± 0.078
SIMLFWVTGRLLRLSLLMLL | 0.45 ± 0.21
SIRDYSFIASSC | inactive

Substance | amyloid nucleation score
SIRKHFPIRNMDELHSARN | inactive
SIRTWRVPRDCSAYFNGLSW | inactive
SISCCGIILIKNQASMPWAS | 2.96 ± 0.079
SISMQVNHPEY | inactive
SISPFN | inactive
SISVNVCRWTRCLGTQLLSV | inactive
SITQSRLTP | -0.196 ± 0.36
SITTEVFDSQVNKLRELDGW | inactive
SIVQLNYTELAVKWSLVS | inactive
SIWSALSDLLLSKREE | inactive
SKAVSLCGLRLMFFPLYPGS | inactive
SKCDMCTYTQRFNDL | inactive
SKESISLECIHRVWFCGTGL | 0.185 ± 0.38
SKFSCIRSYYG | inactive
SKGGADNNWLVIDCPLNRRM | inactive
SKGICNFMCVL | 3.37 ± 0.077
SKHYN | inactive
SKKSDF | inactive
SKLCVVTFLCIQTCQYDLCV | inactive
SKLGYRRVSKCIGTDFN | inactive
SKNDIQARGSRKKCSNKGAK | inactive
SKPACRRFTLNDQKRKVEWI | inactive
SKPNMAELKLHFTGYPHPAK | inactive

Substance | amyloid nucleation score
SKRVIVWVTSLYWDV | inactive
SKSYVEF | inactive
SKVGSWYDAT | -0.506 ± 1.1
SLAINSYVCMYIHFQTTMRD | inactive
SLETMFMEKKRTSPNMVMLW | -0.42 ± 0.73
SLGFGIDSSYGLLTGYKFFT | 0.264 ± 0.21
SLGISKSG | inactive
SLIFFL | 1.35 ± 0.12
SLLFFRWDIWTVASGYD | inactive
SLLKINGGVIHYFSCRMEDW | 0.684 ± 0.34
SLLLTSWESVYIMRGLDRTI | 0.086 ± 0.42
SLMLLRRTAVRPHWWKLRPN | inactive
SLMNPNFFLHMVIRTNCYLK | inactive
SLNNSMVWKYH | inactive
SLPCSKCAVKLFL | inactive
SLPRV | inactive
SLRVLWCIRLKCSCLCWISG | inactive
SLSATCLCTVMSTNFIFYVF | 0.509 ± 0.41
SLSIASVWWDPGTHVFLALW | inactive
SLSSRGLYLSKDLMPILNYR | inactive
SLTFTLCRVHGGRESRVSLG | 0.319 ± 0.81
